Reference: patent US20150086562A1 (BIOATLA, published 2015)
Numbering of substitutions follows the chain as printed.

B1: VM1011 (antibody, V domains shown)
VH: QVQLQESGPGLVKPSQTLSLTCTVSGYVFTSYWLHWIRQPPGKGLEWIGYINPRNDYTEYNRIFKGRVTITADKSTSTAYMELSSLRSEDTAVYYCARRGITTFYWGQG
VL: EIVLTQSPATLSLSPGERATLSCKSSQSVLYSAVEKNYLAWYQQKPGQAPRLLIYWASTRERGIPDRFSGSGSGTDFTLTISRLEPEDFAVYYCKQYLSSWTFGQG
notes: Humanized antibody with human constant region; also called anti-CD22 Mab clone VM1011
B2: VM1000 (antibody, V domains shown)
VH: QVQLVQSGAEVKKPGASVKVSCKASGYVFTSYWLHWIRQSPSRGLEWLGYINPRNDYTEYNRIFKGRLTISKDTSKNQVVLTMTNMDPVDTATYYCARRGITTFYWGQG
VL: B1 VL with Q48K, R51K, I64V, D66S, L79F, R83S, E85Q, F89I, V91T
notes: Humanized antibody with human constant region; also called anti-CD22 Mab clone VM1000
B3: VM1001 (antibody, V domains shown)
VH: B2 VH
VL: B1 VL
notes: Humanized antibody with human constant region; also called anti-CD22 Mab clone VM1001
B4: VM1002 (antibody, V domains shown)
VH: EVQLVQSGAEVKKPGESLRISCKGSGYVFTSYWLHWVRQAPGQGLEWMGYINPRNDYTEYNRIFKGRVTITADKSTSTAYMELSSLRSEDTAVYYCARRGITTFYWGQG
VL: B1 VL
notes: Humanized antibody with human constant region; also called anti-CD22 Mab clone VM1002
B5: VM1004 (antibody, V domains shown)
VH: EVQLVQSGAEVKKPGATVKISCKVSGYVFTSYWLHWIRQSPSRGLEWLGYINPRNDYTEYNRIFKGRFVFSLDTSVSTAYLQICSLKAEDTAVYYCARRGITTFYWGQG
VL: B1 VL with Q48K, R51K
notes: Humanized antibody with human constant region; also called anti-CD22 Mab clone VM1004
B6: VM1003 (antibody, V domains shown)
VH: B5 VH
VL: B1 VL
notes: Humanized antibody with human constant region; also called anti-CD22 Mab clone VM1003
B7: VM1006 (antibody, V domains shown)
VH: B5 VH with E1Q, T17S, I20V, V24A
VL: DIQMTQSPSSLSASVGDRVTITCKSSQSVLYSAVEKNYLAWYQQKPGKAPKLLIYWASTRERGIPDRFSGSGSGTDFTLTISRLEPEDFAVYYCKQYLSSWTFGQG
notes: Humanized antibody with human constant region; also called anti-CD22 Mab clone VM1006
B8: VM1007 (antibody, V domains shown)
VH: B4 VH with E1Q, E16A, L18V, R19K, I20V, G24A, P41R, G44R, M48I
VL: B7 VL with D1A, M4L, I64V, D66S, L79F, R83S, P86A, F89A, V91T
notes: Humanized antibody with human constant region; also called anti-CD22 Mab clone VM1007

biological target: T1, recombinant CD22 extracellular domain; assay: The sheet does not state the method. The column 'KD (nM)' stands beside the confocal data, and the target form is taken from FIGURE 18. FIGURE 18 prints 0.25 for this clone.
T1 construct: Kept apart from m18, which is cell-surface CD22; also called CD22 (analyte in the BIAcore runs); CD22 ECD
Description: BIAcore 3000, GE Healthcare was used to determine binding curves and kinetic parameters. An anti-human Fc (1.8 mg/ml) was diluted to a concentration of 50 ug/ml in NaOAc buffer (10 mM, pH 4.8) and coupled to the carboxymethylated dextran matrix of a CM-5 sensor chip using the manufacturer's amine-coupling chemistry as described in the BIAcore systems manual. Using the surface preparation wizard aiming for 10000RU, the carboxyl groups on the sensor surfaces were first activated with NHS/EDC followed by the addition of the anti-human Fc. The remaining activated groups were blocked by the injection of 1M ethanolamine. Each of the flow cells was coupled individually. Employing these conditions, the four flow cell surfaces containing 7554-9571 RU of anti-human Fc were prepared. In preliminary experiments, it was determine that three injections (15 ul at 30 ul/min) 100 mM H₃PO₄/0.05% CHAPS would efficiently remove the bound immunoglobulin and preserve the binding capacity of the immobilized anti-human Fc.
Experiments were performed on the BIAcore 3000 at 25° C. and a flow rate of 30 ul/min. […] Using the 1:1 model in BIAevaluation 4.1, both a local fit and global fit was done for both dissociation (kd, [s−1] and association (ka, [M⁻¹s⁻¹]) and the dissociation constant (KD, [M]) calculated (kd/ka).

Work on B1 yielded a Kd of 0.26 nM.

biological target: T2, CD22 protein expressed on the surface of Daudi cells (human, UniProt P20273 20-847); assay: Quantitative confocal immunofluorescence of directly FITC-labelled antibody (5 ug/ml, 45 min on ice) on Daudi cells. paragraph 243 calls these 'RMF surface binding values'.
T2 construct: whole, on cells; also called human CD22; cell surface CD22
T2 sequence (looked up): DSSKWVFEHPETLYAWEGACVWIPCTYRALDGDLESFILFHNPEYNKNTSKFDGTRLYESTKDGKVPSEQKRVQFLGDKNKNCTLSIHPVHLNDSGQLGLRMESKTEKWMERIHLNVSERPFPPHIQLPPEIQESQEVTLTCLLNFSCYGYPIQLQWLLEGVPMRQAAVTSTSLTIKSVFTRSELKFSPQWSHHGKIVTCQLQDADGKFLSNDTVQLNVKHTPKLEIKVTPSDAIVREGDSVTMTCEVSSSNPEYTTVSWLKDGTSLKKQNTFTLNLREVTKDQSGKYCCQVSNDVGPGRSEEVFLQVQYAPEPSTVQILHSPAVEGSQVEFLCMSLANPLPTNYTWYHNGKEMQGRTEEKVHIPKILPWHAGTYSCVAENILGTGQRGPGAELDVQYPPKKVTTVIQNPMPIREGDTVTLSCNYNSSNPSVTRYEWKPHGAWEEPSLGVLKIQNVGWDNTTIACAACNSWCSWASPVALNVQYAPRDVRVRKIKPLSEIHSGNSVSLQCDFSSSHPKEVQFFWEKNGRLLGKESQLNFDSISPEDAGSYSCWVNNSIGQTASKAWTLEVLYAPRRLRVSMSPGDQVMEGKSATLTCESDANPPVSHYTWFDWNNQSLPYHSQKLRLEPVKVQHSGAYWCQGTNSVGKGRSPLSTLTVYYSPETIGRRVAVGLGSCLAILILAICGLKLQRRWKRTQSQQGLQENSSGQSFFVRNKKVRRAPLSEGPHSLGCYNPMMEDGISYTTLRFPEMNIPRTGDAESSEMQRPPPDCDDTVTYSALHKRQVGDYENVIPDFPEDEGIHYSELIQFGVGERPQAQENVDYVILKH
Description: Selected antiCD22 selected anti-CD22 Mab clones VM1000, VM1001, VM1002, VM1003, VM1004, VM1005, VM1006, VM1007, VM1008, VM1009, VM1010, VM1011, VM1012, VM1013, VM1014, and VM1015 of the invention were directly conjugated to F1TC using the Zenon labeling complex (Molecular Probes) using the manufacturer's recommended procedures. Approximately 1×10e7 Daudi cells were resuspended in PBS containing 5 ug/ml labeled anti-CD22 antibody and incubated for 45 minutes on ice. Cells then washed twice in PBS-FBS solution at 0 C. Cells were then incubated in RPMI 1640 media containing 10% FBS for varying periods at 37 C, harvested and washed in PBS at 0 C. The cells were then briefly fixed in 4% paraformaldehyde solution for 5 min at room temperature, then washed in PBS containing 0.05% Triton X-100. Cell pellets were collected by centrifugation and resupended in a minimal volume of FBS neat, and then applied to glass microscope slides. Prior to analysis, slides were treated with mounting fluid containing the nuclear stain DAPI, then coverslips were applied. Confocal images were recorded using an ACAS Ultima confocal microscope (Meridian Instruments, Inc., Okemos, Mich.) and represent 1-μm sections through the center of a focal plane using a 100× oil immersion objective.
The Anti-CD22 monoclonal antibodies selected clones VM1000, VM1001, VM1002, VM1003, VM1004, VM1005, VM1006, VM1007, VM1008, VM1009, VM1010, VM1011, VM1012, VM1013, VM1014, and VM1015 of the invention were analysed for their ability to be rapidly internalized into the intracellular compartment as judged by immunoflourescent signal on the cell surface versus the intracellular endo cytotic compartment. The antibodies of the invention were compared to BA006H, and humanized version of the murine monoclonal antibody LL2. In this example, FIG. 21A, the anti-CD22 antibodies of the invention bind to CD22 protein expressed on the surface of Daudi cells by approximately 20-fold compared to BA006H as judged by relative mean fluorescence (RMF), and are virtually completely internalized within the cell with 90 minutes, localizing predominantly to within the perinuclear golgi apparatus and associated lysozomes. Shown in FIG. 21B is a chart of the RMF surface binding values obtained in this manner for individual anti-CD22 antibodies of the invention.

B2 and B3 are the same in “RMF (Daudi Internalization by Confocal)” value: about 100 RMF for the first, about 100 RMF for the second.

Going from B4 to B5, the “RMF (Daudi Internalization by Confocal)” value falls from about 150 RMF to about 100 RMF.

Going from B6 to B7, the “RMF (Daudi Internalization by Confocal)” value rises from about 150 RMF to about 200 RMF.

B8 and B1 are the same in “RMF (Daudi Internalization by Confocal)” value: about 200 RMF for the first, about 200 RMF for the second.
